Test results taken from PMC2575085 (Nature structural & molecular biology, 2008).
Where “and” joins values, the source holds several entries; their conditions need not be identical. Identical values can stand only once. Like-named read-outs stand apart in the source and are kept apart here.

How the values were obtained:
Assay in all cases: EPR
[1] = molecular target: Sso1pHT spin-labeled cysteine mutant at position 269 (yeast) (UniProt P32867)
[2] = molecular target: Sso1pHT spin-labeled cysteine mutant at position 269 (yeast) (UniProt P32867); remark: listed apart in the source
[3] = molecular target: Sso1pHT spin-labeled cysteine mutant at position 272 (yeast) (UniProt P32867)
[4] = molecular target: Sso1pHT spin-labeled cysteine mutant at position 272 (yeast) (UniProt P32867); remark: listed apart in the source
[5] = molecular target: Sso1pHT spin-labeled cysteine mutant at position 284 (yeast) (UniProt P32867)
[6] = molecular target: Sso1pHT spin-labeled cysteine mutant at position 284 (yeast) (UniProt P32867); remark: listed apart in the source
[7] = molecular target: the molecule itself

## Sso1pHT spin-labeled cysteine mutant at position 269 (from UniProt P32867 185-290) (domain or fragment)
[1]
  stoichiometry N: > 3
[2]
  ln K (equilibrium constant of nM to Mn, concentration as protein:lipid ratio): 18.4
  stoichiometry N: 4

## Sso1pHT spin-labeled cysteine mutant at position 272 (from UniProt P32867 185-290) (domain or fragment)
[3]
  stoichiometry N: > 3
[4]
  ln K (equilibrium constant of nM to Mn, concentration as protein:lipid ratio): 18.4
  stoichiometry N: 4

## Sso1pHT spin-labeled cysteine mutant at position 284 (from UniProt P32867 185-290) (domain or fragment)
[5]
  stoichiometry N: > 3
[6]
  ln K (equilibrium constant of nM to Mn, concentration as protein:lipid ratio): 18.4
  stoichiometry N: 4

B1: Sso1pHT I273C, spin-labeled (domain or fragment, yeast, UniProt P32867 185-290, looked up)
chain: EAKTALAEVQARHQELLKLEKSMAELTQLFNDMEELVIEQQENVDVIDKNVEDAQLDVEQGVGHTDKAVKSARKARKNKIRAWLIVFACIVVVVVVVVVPAVVKTR
modifications: MTSSL nitroxide spin label on the cysteine at 273
[7]
  ln K (equilibrium constant of nM to Mn, concentration as protein:lipid ratio): 18.4
  stoichiometry N: 4 and ≥ 3
